{"source": "patent US20240084003A1", "key": {"[1]": {"target": "human CD22 (full length, on cells) (human) (UniProt P20273)", "sequence (P20273 20-847 limits assumed)": "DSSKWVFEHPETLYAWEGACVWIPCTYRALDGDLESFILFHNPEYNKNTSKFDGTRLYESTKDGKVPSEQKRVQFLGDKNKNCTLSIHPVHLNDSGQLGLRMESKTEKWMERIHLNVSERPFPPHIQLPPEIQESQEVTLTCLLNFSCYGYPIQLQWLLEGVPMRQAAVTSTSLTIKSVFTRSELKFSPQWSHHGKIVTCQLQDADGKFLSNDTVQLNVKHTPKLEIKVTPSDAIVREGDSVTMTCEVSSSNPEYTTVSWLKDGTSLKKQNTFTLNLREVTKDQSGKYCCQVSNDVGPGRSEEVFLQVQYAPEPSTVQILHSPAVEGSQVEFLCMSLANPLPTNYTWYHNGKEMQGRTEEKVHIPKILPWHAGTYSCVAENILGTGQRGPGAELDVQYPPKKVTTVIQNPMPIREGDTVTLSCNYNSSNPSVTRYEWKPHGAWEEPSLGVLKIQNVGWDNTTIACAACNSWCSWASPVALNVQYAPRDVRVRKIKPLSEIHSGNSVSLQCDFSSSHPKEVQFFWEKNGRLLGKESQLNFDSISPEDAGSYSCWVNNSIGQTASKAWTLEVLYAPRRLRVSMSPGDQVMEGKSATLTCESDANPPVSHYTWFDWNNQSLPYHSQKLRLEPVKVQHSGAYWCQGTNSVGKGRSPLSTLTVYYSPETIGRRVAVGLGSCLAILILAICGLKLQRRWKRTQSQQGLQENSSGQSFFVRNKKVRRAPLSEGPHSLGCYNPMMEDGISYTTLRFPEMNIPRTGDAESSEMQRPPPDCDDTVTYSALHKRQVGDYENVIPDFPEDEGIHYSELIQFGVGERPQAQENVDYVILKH", "test": "FACS on CHO-K1-human CD22 clone 2C4"}, "[2]": {"target": "human CD22 (full length, on cells) (human) (UniProt P20273)", "test": "FACS on Raji cells, control of the HA22 row"}, "[3]": {"target": "human CD22 (full length, on cells) (human) (UniProt P20273)", "test": "FACS on CHO-K1-human CD22 clone 1G5"}, "[4]": {"target": "human CD22 (full length, on cells) (human) (UniProt P20273)", "test": "FACS on CHO-K1-human CD22 clone 1D9"}, "[5]": {"target": "human CD22 (full length, on cells) (human) (UniProt P20273)", "test": "FACS on Raji cells, control of the m971 row"}, "[6]": {"target": "monkey CD22 on HEK293T-monkey CD22 cells (monkey)", "sequence (chain, as listed by the source limits assumed)": "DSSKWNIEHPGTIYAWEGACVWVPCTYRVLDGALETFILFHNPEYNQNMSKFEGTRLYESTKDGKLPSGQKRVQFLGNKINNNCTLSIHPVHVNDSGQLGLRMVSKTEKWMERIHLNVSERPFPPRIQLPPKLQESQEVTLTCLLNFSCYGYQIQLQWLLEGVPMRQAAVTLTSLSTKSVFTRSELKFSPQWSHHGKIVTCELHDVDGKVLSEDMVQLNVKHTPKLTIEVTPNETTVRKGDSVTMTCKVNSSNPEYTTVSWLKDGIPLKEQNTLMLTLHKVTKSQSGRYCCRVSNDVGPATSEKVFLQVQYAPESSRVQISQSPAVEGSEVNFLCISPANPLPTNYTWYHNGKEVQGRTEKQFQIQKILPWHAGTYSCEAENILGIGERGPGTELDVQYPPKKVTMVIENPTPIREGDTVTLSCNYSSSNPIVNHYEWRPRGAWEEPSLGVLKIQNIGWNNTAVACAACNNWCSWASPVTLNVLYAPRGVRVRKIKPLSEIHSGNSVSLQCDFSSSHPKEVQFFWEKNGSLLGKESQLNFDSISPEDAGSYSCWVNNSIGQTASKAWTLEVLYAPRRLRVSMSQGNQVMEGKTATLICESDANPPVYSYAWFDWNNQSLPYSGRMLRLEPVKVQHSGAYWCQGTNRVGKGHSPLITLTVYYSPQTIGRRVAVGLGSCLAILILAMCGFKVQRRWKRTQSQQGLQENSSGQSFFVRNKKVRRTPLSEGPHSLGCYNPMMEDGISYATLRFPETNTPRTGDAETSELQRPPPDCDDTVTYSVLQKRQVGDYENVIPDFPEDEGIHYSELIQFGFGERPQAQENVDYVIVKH", "test": "FACS, HEK293T-monkey CD22 cells"}, "[7]": {"target": "human CD22, full length, on CHO-K1-human CD22 2C4 cells (human) (UniProt P20273)", "sequence (P20273 20-847 limits assumed)": "as the sequence (P20273 20-847 limits assumed) above", "test": "FACS, CHO-K1-human CD22 2C4 cells"}, "[8]": {"target": "human CD22, endogenous on Raji cells (human) (UniProt P20273)", "sequence (P20273 20-847)": "as the sequence (P20273 20-847 limits assumed) above", "test": "FACS, Raji cells"}}}
{"substance": "IgG subtype control (antibody)", "values": [{"measurement": "Cell mean fluorescence intensity", "setting": "[1]", "result": 66, "unit": "MFI"}, {"measurement": "Cell mean fluorescence density", "setting": "[2]", "result": 44, "unit": "MFI"}, {"measurement": "Cell mean fluorescence intensity", "setting": "[3]", "result": 66, "unit": "MFI"}, {"measurement": "Cell mean fluorescence intensity", "setting": "[4]", "result": 66, "unit": "MFI"}, {"measurement": "Cell mean fluorescence density", "setting": "[5]", "result": 44, "unit": "MFI"}]}
{"substance": "anti-hel-hIgG1 (antibody)", "values": [{"measurement": "Maximum mean fluorescence intensity", "setting": "[6]", "result": 129, "unit": "MFI"}]}
{"substance": "anti-hel-hIgG1 (negative control antibody against chicken egg lysozyme)", "values": [{"measurement": "Maximum mean fluorescence intensity", "setting": "[7]", "result": 150, "unit": "MFI"}, {"measurement": "Maximum mean fluorescence intensity", "setting": "[8]", "result": 564, "unit": "MFI"}]}
